The record followed here is patent US20220194997A1 (published 2022).

Where no end group is shown, it is not given here.

Test in all cases: MST
Assay [1] addresses αSyn-SIM1(5A).
Assay [2] concerns the target αSyn-SIM2(5A).
Assay [3] deals with α-Synuclein-V40R/V49R.
In assay [4] the target is T1, αsyn(74-84).
T1 peptide: VTAVAQKTVEG

Assay [5] addresses T2, αsyn(35-45).
T2 peptide: EGVLYVGSKTK

Assay [6] concerns the target T3, αsyn(59-66).
T3 peptide: TKEQVTNV

Assay [7] concerns the target T4, αsyn(48-60).
T4 peptide: VVHGVATVAEKTK

Assay [8] deals with T5, αsyn(87-95).
T5 peptide: SIAAATGFV

Assay [9] deals with human wild-type α-synuclein (full-length) (UniProt P37840 1-140).

In the case of DKKEGEYIKLKVIGQDSSEIHFKVKMTTHLKKLKESYCQRQ (also: Alexa Fluor 647 NHS ester on amines when used as MST target) [SUMO1(15-55)], the Kd in assay [1] turned out to be 19.6 µM; in assay [2] it was 860 nM; in assay [3], 88.3 µM; in [4], 195 µM; in assay [5] it was 1190 nM; in assay [6], 108 µM. In addition, the Kd in assay [7] came out at 870 nM; in assay [8], 364 µM.

On to SSEIHFKVKMTTHLKKLKESYCQRQ [SUMO1(31-55)], for which the Kd in assay [9] was 2320 nM.

What is called Kd is the equilibrium constant for the complex coming apart. The low end stands for higher affinity, the high end for lower affinity.
